± gives the uncertainty stated by the source.
Test: protein stability index of a GFP-peptide fusion (yeast GPS) (PSI 1-4); higher = more stable; sorted into four equal gates, so the index is relative within each strain
Summary of the method: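 Tiled yeast protein peptides of 17 residues were each joined downstream of GFP, on plasmids that also express Cherry. The pooled library was maintained in yeast, and mid-log cultures in leucine-free medium were sorted into four equal gates on the GFP/Cherry ratio. Plasmids from every gate were amplified by PCR and sequenced on Illumina, with barcodes linking reads to strains. The protein stability index of a peptide is its gate-number-weighted read frequency summed over the gates.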

Sequence | protein stability index (doa10∆) | protein stability index (pdr5∆) | protein stability index (san1∆) | protein stability index (ubr1∆)
FAKEHNATVNLAMEAIL [YJR042W/NUP85] | 2.93 ± 0.094 | 2.66 ± 0.1 | 2.71 ± 0.098 | 2.63 ± 0.092
KPAFSFGAKSDEKKDSD [YJL041W/NSP1] | 3.35 ± 0.087 | 3.25 ± 0.069 | 3.21 ± 0.058 | 3.46 ± 0.056
DSEKRNKYAAMLTSENA [RRP45] | 2.97 ± 0.068 | 3.02 ± 0.063 | 3.14 ± 0.067 | 2.92 ± 0.04
KMNNKPERFMVFQLPTR [RPC53] | 2.38 ± 0.063 | 2.75 ± 0.056 | 2.65 ± 0.085 | 2.83 ± 0.058
GSIPSLTTQFVTDKYTA [YDL088C/ASM4] | 2.54 ± 0.08 | 2.54 ± 0.066 | 2.46 ± 0.087 | 2.58 ± 0.079
EDVVAISSRTFGQRAVL [RPS0A] | 3.3 ± 0.11 | 3.03 ± 0.056 | 3.02 ± 0.085 | 3.1 ± 0.047
DDSFSLLRIQMLLCVSY [PCI8] | 2.1 ± 0.042 | 2.05 ± 0.045 | 2.08 ± 0.052 | 2.42 ± 0.034
IVFDICQILDGELDVLQ [PRP8] | 2.7 ± 0.11 | 2.63 ± 0.11 | 2.39 ± 0.1 | 3.07 ± 0.11
SKYCEKSLPLLITVMEK [YCS4] | 1.76 ± 0.052 | 1.86 ± 0.048 | 2.12 ± 0.067 | 1.87 ± 0.039
SDIESANNQEYDLNFKL [SMC1] | 3.12 ± 0.29 | – | – | –
SASSLVITALKEPPRDR [RPL12A] | 2.83 ± 0.062 | 2.97 ± 0.074 | 2.66 ± 0.071 | 2.22 ± 0.052
DQLSTISMILRNISFSD [SWI1] | 1.85 ± 0.052 | 2.44 ± 0.072 | 2.04 ± 0.069 | 2.31 ± 0.051
NLGRAVFWEIQSRVPTS [PRP8] | 2.05 ± 0.1 | 2.22 ± 0.17 | 2.17 ± 0.092 | 2.4 ± 0.18
FMAFINACAKYGRDDME [ISW2] | 2.77 ± 0.2 | – | – | –
EDMIDQVSKKLSSIEAS [SMC3] | 3.07 ± 0.16 | 2.54 ± 0.15 | 2.84 ± 0.12 | 3.05 ± 0.12
DEEYPVKVKVSYQKLLK [PRP8] | 3.03 ± 0.091 | 1.86 ± 0.078 | 1.91 ± 0.15 | 2.6 ± 0.054
EVTFKNANIFSSVKCFG [FAS1] | 2.92 ± 0.046 | 2.81 ± 0.058 | 2.84 ± 0.063 | 3.06 ± 0.052
LAYSKIVNGQTFSYVDS [YMR129W/POM152] | 2.25 ± 0.045 | 2.64 ± 0.059 | 2.53 ± 0.054 | 1.95 ± 0.042
CVQLIKCLVEKSICFEN [SWI1] | 2.49 ± 0.25 | 2.61 ± 0.25 | 2.28 ± 0.17 | 2.74 ± 0.15
SVKFTHIAHTLPEKVNF [SSN2] | 2.17 ± 0.05 | 2.28 ± 0.042 | 2.2 ± 0.066 | 1.92 ± 0.029
KNFKGIEEIEYNVKNII [PCI8] | 3.05 ± 0.078 | 3.04 ± 0.093 | 3.11 ± 0.061 | 3.05 ± 0.063
VPEFFQTANEKHITVRL [SRP14] | 3.02 ± 0.1 | 2.67 ± 0.11 | 3.01 ± 0.12 | 2.56 ± 0.1
TNNVLRKLGLLGDKEDE [MTW1] | 2.27 ± 0.048 | 2.35 ± 0.054 | 1.85 ± 0.085 | 2.58 ± 0.049
RQLQYETLGDILKRDFE [ECM29] | 2.92 ± 0.075 | 3.36 ± 0.099 | 2.76 ± 0.095 | 3.02 ± 0.087
TGYDLSNSVFSPDGRNF [PRE10] | 2.79 ± 0.072 | 2.88 ± 0.089 | 2.52 ± 0.13 | 2.97 ± 0.087
GSFKVVKGTNISEKDLV [RPO31] | 2.6 ± 0.27 | 3.36 ± 0.14 | 3.51 ± 0.044 | 3.5 ± 0.089
IKTRTVHELSKRVHTLL [ISW2] | 1.37 ± 0.091 | 1.49 ± 0.072 | 2.18 ± 0.17 | 1.49 ± 0.049

Sequence | protein stability index (doa10∆) | protein stability index (pdr5∆) | protein stability index (san1∆) | protein stability index (ubr1∆)
VNNCIWALKSSLNSMTN [RGR1] | 2.71 ± 0.1 | 2.39 ± 0.22 | – | 2.37 ± 0.16
NSNINTLTASPDGTLIA [ASC1] | 2.88 ± 0.078 | 2.68 ± 0.061 | 2.88 ± 0.061 | 2.82 ± 0.046
SEEVDDLSMVPKMKDEE [SNF2] | 2.78 ± 0.17 | – | 3.29 ± 0.12 | 3.59 ± 0.22
IHLKQKLSESLDTRKEL [SMC3] | – | 3.03 ± 0.24 | 3.4 ± 0.18 | 3.49 ± 0.15
GINNLSEIWDVSRGQSA [PRP8] | 3 ± 0.13 | 2.67 ± 0.12 | 2.74 ± 0.29 | 2.26 ± 0.073
KHITVRLTAKRLIEHDP [SRP14] | 2.35 ± 0.057 | 2.52 ± 0.044 | 2.51 ± 0.064 | 2.65 ± 0.035
LNHVVSLIENKKAKLVL [RPL8B] | 2.46 ± 0.088 | 3.54 ± 0.17 | 2.98 ± 0.1 | 2.83 ± 0.1
VTPIIDGIVVKNAVVRS [ARP7] | 1.51 ± 0.074 | 1.92 ± 0.082 | 1.61 ± 0.13 | 1.74 ± 0.16
STDKLVQCHGSFATATC [SIR2] | 2.72 ± 0.066 | 2.67 ± 0.048 | 2.48 ± 0.063 | 2.76 ± 0.037
AKGVYRPNGRKDHDLKI [POP1] | 2.88 ± 0.078 | 3.08 ± 0.052 | 2.93 ± 0.049 | 3.03 ± 0.061
GDIESLFEQLQTVSNKE [SRP54] | 3.08 ± 0.098 | 2.87 ± 0.079 | 3.18 ± 0.045 | 3.12 ± 0.046
AYRTDVIQALGGIETIL [PRP8] | 1.44 ± 0.073 | 1.54 ± 0.066 | 1.46 ± 0.13 | 1.45 ± 0.054
KAELIKPIQNGEIIDIS [ARP9] | 3.31 ± 0.087 | 3.02 ± 0.1 | 3.33 ± 0.067 | 2.92 ± 0.092
VLKADRSWNEPSKSQTN [YML103C/NUP188] | 2.93 ± 0.11 | 3.16 ± 0.1 | 2.89 ± 0.097 | 3.27 ± 0.083
QWLIMLGICTHLGCVPI [RIP1] | 1.69 ± 0.067 | 1.37 ± 0.078 | 1.29 ± 0.14 | 1.46 ± 0.089
QDSIDISIKDNKLVMKS [GAL11] | 2.5 ± 0.064 | 2.77 ± 0.058 | 3.21 ± 0.053 | 2.05 ± 0.068
FVDENTFQRVCQYMVAC [RPN1] | 3.09 ± 0.074 | 2.59 ± 0.072 | 2.77 ± 0.095 | 2.99 ± 0.091
AIKELNYNRIAKICALL [NUT1] | 2.41 ± 0.059 | 2.44 ± 0.065 | 2.37 ± 0.08 | 2.32 ± 0.043
GSKENYQELGSLQSSSQ [MED2] | 3.16 ± 0.15 | 3.45 ± 0.098 | 3.27 ± 0.071 | 3.12 ± 0.093
DLKSKGLIPADATFAGH [FAS1] | 3.04 ± 0.092 | 3.01 ± 0.074 | 3.07 ± 0.12 | 2.98 ± 0.065
KKICNHPFVFEEVEDQI [SNF2] | 3.17 ± 0.064 | 2.89 ± 0.055 | 2.94 ± 0.06 | 2.86 ± 0.045
TRSHFNALYDTLLESNL [RPN6] | 2.3 ± 0.05 | 2.49 ± 0.057 | 2.65 ± 0.047 | 2.69 ± 0.042
TQIVAKFPETSYPILNE [SIN4] | 2.92 ± 0.091 | 3.02 ± 0.068 | 2.91 ± 0.081 | 2.89 ± 0.057
PSEIPDAHKAEQEDIIE [SWI3] | – | 3.29 ± 0.14 | 3.46 ± 0.12 | 3.05 ± 0.17
ARHKKKVENLDYMYENG [YML031W/NDC1] | 3.41 ± 0.15 | 3.37 ± 0.14 | 3.08 ± 0.12 | –
SSHQRVFKLSTNLISKI [SWP82] | 2.08 ± 0.073 | 1.97 ± 0.057 | 1.52 ± 0.11 | 1.93 ± 0.048
